This test deals with T1, Sirt3 F180L (Homo sapiens, UniProt Q9NTG7, F180L).
T1 construct: His tag (from pTrcHis 2C vector; nickel column purification); made in house; host or cells: E. coli Rosetta
T1 sequence (Q9NTG7 102-399 F180L): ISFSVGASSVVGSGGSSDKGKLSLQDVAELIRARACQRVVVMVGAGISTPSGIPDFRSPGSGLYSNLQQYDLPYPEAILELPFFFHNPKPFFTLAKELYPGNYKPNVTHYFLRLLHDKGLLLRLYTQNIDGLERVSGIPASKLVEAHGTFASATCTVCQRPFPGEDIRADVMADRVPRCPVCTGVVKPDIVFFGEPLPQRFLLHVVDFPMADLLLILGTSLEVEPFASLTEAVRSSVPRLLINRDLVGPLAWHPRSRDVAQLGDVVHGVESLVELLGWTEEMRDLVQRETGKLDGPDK
The test is described as follows: Steady state kinetics of deacetylation by Sirt3 F180L mutant. The format is biochemical. As to conditions: F180L vs wild-type Sirt3 (H3K4Ac, Figure 4—figure supplement 6). How it is done: Plasmids of Sirt1 (193–747), Sirt2 (36–356), Sirt5 (34–302), and Sirt6 (1–314) for Escherichia coli expression were generated as previously described ([Finnin et al., 2001]; [Du et al., 2011]; [Hubbard et al., 2013]; [Jiang et al., 2013]). […] Sirt3 mutant F180L was generated by site directed mutagenesis. All of the proteins were expressed in E. coli Rosetta cells. To induce expression of target proteins, isopropyl β-D-1-thiogalactopyranoside was added to a final concentration of 0.2 mM when OD600 reached 0.6, and the culture was grown at 15 °C (Sirt3 at 25 °C) for 16–18 hr. Cells were harvested and resuspended in lysis buffer A (50 mM Tris–HCl, pH 7.5, 500 mM NaCl, 1 mM PMSF, and Roche EDTA free protease inhibitors, for Sirt1, Sirt2, and Sirt6) or buffer B (50 mM Tris–HCl, pH 7.5, 150 mM NaCl, 1 mM PMSF, and Roche EDTA free protease inhibitors, for Sirt3 and Sirt5). […]
Enzyme was incubated with different concentrations of corresponding peptides bearing two tryptophans at the C terminus (20, 40, 60, 80, 100, 200, and 500 μM) and 1.0 mM NAD in 20 mM Tris–HCl buffer (pH 7.5) containing 1 mM DTT in 25 μL reaction at 37°C for a certain period of time within the initial linear range. […] Samples were then analyzed by HPLC with a Vydac 218TP C18 column (4.6 mm×250 mm, 5 μm; Grace Davison). […]

B1: Sirt3 F180L: Sirt3 mutant with Phe180 mutated to leucine (protein, UniProt Q9NTG7 1-399, looked up, variant F180L)
chain: MAFWGWRAAAALRLWGRVVERVEAGGGVGPFQACGCRLVLGGRDDVSAGLRGSHGARGEPLDPARPLQRPPRPEVPRAFRRQPRAAAPSFFFSSIKGGRRSISFSVGASSVVGSGGSSDKGKLSLQDVAELIRARACQRVVVMVGAGISTPSGIPDFRSPGSGLYSNLQQYDLPYPEAILELPFFFHNPKPFFTLAKELYPGNYKPNVTHYFLRLLHDKGLLLRLYTQNIDGLERVSGIPASKLVEAHGTFASATCTVCQRPFPGEDIRADVMADRVPRCPVCTGVVKPDIVFFGEPLPQRFLLHVVDFPMADLLLILGTSLEVEPFASLTEAVRSSVPRLLINRDLVGPLAWHPRSRDVAQLGDVVHGVESLVELLGWTEEMRDLVQRETGKLDGPDK
Turning to B1, the “decrease in deacetylation activity caused by F180L mutation” value is given as “about a two-fold decrease”.
